In US20210009693A1 (MABSPACE BIOSCIENCES SUZHOU, published 2021):
Substitutions are numbered along the chain they refer to. Numbers in names are those of the source. Like-named read-outs stand apart in the source and are kept apart here. Blank lines part the entries; values can stand above or below the binder they belong to.

Experiments:
[1] = molecular target: T1, Recombinant Human PD-L1/CD274 Protein (hPD-L1-his) (human, UniProt Q9NZQ7 19-238); assay: ELISA on coated hPD-L1-his; bound at pH7.4, then 2 h at pH5.5
T1 construct: range 19-238; ACRO Biosystem PD1-H5229, made in HEK293; also called human PD-L1-his; hPD-L-his

[2] = molecular target: T2, human PD-L1 expressed on cells (human, UniProt Q9NZQ7 19-290); assay: blocking FACS on HCC827 cells; blocked ligand: biotinylated hPD-1-N297A
T2 construct: whole, on cells; also called hPD-L1 expressed on HCC827; hPD-L1 on MC38/hPD-L1 cells
Experimental: (§1) Log phase IFN-γ stimulated (500U/ml for 2 days) HCC827 cells were collected and resuspended in blocking buffer (5% BSA+PBS). 2×10\hat{ }5 cells were added to each tube and then washed once with PBS (1500 rpm, 5 mins, RT). The 100 μl/tube serial diluted PD-L1 antibodies (see FIG. 8) with blocking buffer were added into corresponding tubes and incubate at 4° C. for 1 hr. […] After washing for three times with PBS, 100 μl/tube streptavidin-PE 1:200 (EBiosciences) in blocking buffer was added to each tube. The cells were incubated at 4° C. for 1 hr and then washed twice with PBS, followed by resuspending cells in 150 μl PBS for each sample. The cells were then transferred into FACS tube and the binding of the antibodies to the cells were detected with flow cytometry (ACEA Bioscience Novocyte).

[3] = molecular target: T2, human PD-L1 expressed on cells; assay: FACS, IFN-gamma stimulated HCC827 cells
Experimental: Log phase IFN-γ stimulated (500U/ml for 2 days) HCC827 cells were collected and resuspended in blocking buffer (5% BSA+PBS). 2×10\hat{ }5 cells were added to each tube and then washed once with PBS (1500 rpm, 5 mins, RT). The 100 μl/tube serial diluted biotinylated PD-L1 antibodies with blocking buffer were added into corresponding tubes and incubate at 4° C. for 1 hr.

[4] = molecular target: T1, Recombinant Human PD-L1/CD274 Protein …; assay: ELISA on coated hPD-L1-his; bound at pH7.4, then 2 h at pH7.4
[5] = molecular target: T1, Recombinant Human PD-L1/CD274 Protein …; assay: as above; remark: listed apart in the source
[6] = molecular target: T1, Recombinant Human PD-L1/CD274 Protein …; assay: ELISA on coated hPD-L1-his; bound at pH7.4, then 2 h at pH5.5; remark: listed apart in the source
[7] = molecular target: hPD-L1 (antigen of the Biacore assay) (human, UniProt Q9NZQ7 19-238, limits assumed); assay: SPR (Biacore), antibody captured on anti-human Fc, antigen in flow
Experimental: A CM5 sensor chip was activated in each flow cell by 7-min injection (10 μl/min) of freshly prepared 1:1 50 mM N-hydroxysuccinimide (NHS): 200 mM 1-ethyl-3-(3-dimethylaminopropyl)-carbodiimide (EDC). Then anti-human Fc antibody (GE Healthcare) in a concentration of 10 μg/ml in 10 mM sodium acetate buffer PH 5.0 was injected onto the activated chip at 10 μl/min (HBS-EP running buffer: 10 mM HEPES, 150 mM NaCl, 3.4 mM EDTA, 0.005% surfactant P20, pH 7.4). The remaining active coupling sites were blocked by 7 min injection of 1M ethanolamine at 10 μl/min. The immobilization level of each flow cell is ˜9000RU. Antibodies were captured in FC2 by anti-human Fe IgG (GE Healthcare) to 200˜300RU. FC1 was used as the reference cell. Antigen was injected at varying concentrations after capture of antibody. The association time for antibody binding antigen is 180s. Surface Regeneration condition is 120s at 10 μl/min in Gly pH1.5. The signals with captured antibody subtracted from those without captured antibody were calculated with Biacore X100 evaluation software ver. 2.0 (Biacore).

[8] = molecular target: T2, human PD-L1 expressed on cells; assay: FACS, IFN-gamma stimulated HCC827 cells; remark: listed apart in the source
[9] = molecular target: T1, Recombinant Human PD-L1/CD274 Protein …; assay: ELISA, coated hPD-L1-his, acidic wash and incubation after binding at pH7.4
Experimental: (§2) The pH-dependent binding affinity was further measured at various pH values, such as pH4, pH4.5, pH5.0, pH5.5, pH6.0, pH7.4. The measurement by ELISA was conducted similarly to the method described above. High-binding clear polystyrene 96 well plates were coated with 100 μl/well of a 0.5 μg/ml hPD-L1-his in high pH coating buffer and incubated overnight at 4° C. Then the coated plates were washed 3 times with shaking for 10s on an automatic plate washer with PBS+0.1% Tween 20 (Amresco). Then 200 μl of blocking buffer (1% BSA (Solarbio)+1% normal goat serum (Solarbio)+0.05% Tween 20 (Amresco)) was added to each well and the plates were then incubated for 2 hours at room temperature and washed 3 times as above. […] The plates were then washed once with 250 μl/well washing buffer at pH7.4, pH6.0, pH5.5, pH5.0, pH4.5 or pH4.0 and then 100 μl/well pH7.4 or pH5.5 washing buffer was added and the incubation was continued for 2 hours at RT with shaking. Afterwards, the plates was washed 3 times washing buffer at pH7.4 and 100 μl/well of a solution of HRP conjugated goat anti-hIgG HRP antibody (1:20000, Abcam) in pH7.4 dilution buffer was then added to each well of the plate. After that the plates were allowed to incubate for 60 min at room temperature followed by washing 3 times with 250 μl/well pH7.4 washing buffer. Finally, 100 μl/well of TMB was added to each well for 15 min and the reaction was terminated using 50 μl/well of 0.16M/L sulfuric acid. The plates were read on a Thermo Multiscan FC at 450 nm (see FIG. 23A-23F). The measurements were performed in triplicate.

[10] = molecular target: T1, Recombinant Human PD-L1/CD274 Protein …; assay: ELISA on coated hPD-L1-his; bound at pH7.4, then 2 h at pH5.5; remark: listed apart in the source
Experimental: as §2, with “Finally, 100 μl/well of TMB was added to each well for 15 min and the reaction was terminated using 50 μl/well of 0.16M/L sulfuric acid.” left out, “The measurements were performed in triplicate.” left out

[11] = molecular target: T2, human PD-L1 expressed on cells; assay: blocking FACS on HCC827 cells; blocked ligand: biotinylated hPD-1-N297A; remark: listed apart in the source
Experimental: as §1, with “RT).” for “RT). The 100 μl/tube serial diluted PD-L1 antibodies (see FIG. 8) with blocking buffer were added into corresponding tubes and incubate at 4° C. for 1 hr.”, “1:200” for “1:200 (EBiosciences)”, “Novocyte) (see FIGS. 20A and 20B).” for “Novocyte).”

[12] = molecular target: T1, Recombinant Human PD-L1/CD274 Protein …; assay: ELISA on coated hPD-L1-his
[13] = molecular target: T3, wild type human PD-L1-Fc protein (SEQ ID NO: 107) (human); assay: ELISA on captured PD-L1-Fc, as in Example 18A
T3 construct: Extracellular human PD-L1 (amino acid 19-238) with Fc fragment of human IgG1, expressed in 293T cells and used as culture supernatant; also called WT PD-L1; wild-type PD-L1

[14] = molecular target: T4, human PD-L1-Fc mutant E58A (human); assay: ELISA on captured PD-L1-Fc, as in Example 18A
T4 construct: Position 58 counts on native human PD-L1 (NP_054862.1); also called E58A mutant

[15] = molecular target: T1, Recombinant Human PD-L1/CD274 Protein …; assay: ELISA on coated hPD-L1-his; bound at pH7.4, then 2 h at pH7.4; remark: listed apart in the source
Experimental: as §2

[16] = molecular target: T5, Human PD-L1/CD274 with C-Fc Tag (hPD-L1-Fc) (human, UniProt Q9NZQ7 19-238); assay: blocking ELISA on coated hPD-L1-Fc; blocked ligand: biotinylated hPD-1-N297A
T5 construct: range 19-238; ACRO Biosystem PD1-H5258, made in HEK293; also called human PD-L1-Fc; not shown: Fc fragment of human IgG1 at C-terminus
Experimental: High-binding clear polystyrene 96 well plates (Nunc) were coated with 100 μl/well of coating solution consisting of 1 μg/ml hPD-L1-Fc overnight at 4° C. Then the plates were washed once on an automatic plate washer using washing buffer (PBS+0.1% Tween 20 (Sigma)). 200 μl of blocking buffer (PBS+1% BSA+1% normal goat serum+0.05% Tween-20) was added to each well and incubated 2 hours at room temp. […] The plates were then washed 3 times using the method described above. […] After the plates were washed 3 times, 100 μl/well of a solution of 1:5000 diluted HRP conjugated Neutravidin antibody (Pierce) in dilution buffer was then added to each well of the plate. After that the ELISA plates were allowed to incubate for 60 min at RT, then the plates were washed 3 times with 250 μl/well washing buffer. Finally, 100 μl/well of TMB was added to each well and the reaction was terminated using 0.64M H₂SO₄. The plates were read on a Thermo Multiscan FC at 450 nM (see FIG. 18A to 18D).

[17] = molecular target: T1, Recombinant Human PD-L1/CD274 Protein …; assay: ELISA on coated hPD-L1-his; bound at pH7.4, then 2 h at pH7.4; remark: listed apart in the source
[18] = molecular target: T1, Recombinant Human PD-L1/CD274 Protein …; assay: ELISA on coated hPD-L1-his; bound at pH7.4, then 2 h at pH5.5; remark: listed apart in the source

T3 sequence (chain, as listed by the source limits assumed): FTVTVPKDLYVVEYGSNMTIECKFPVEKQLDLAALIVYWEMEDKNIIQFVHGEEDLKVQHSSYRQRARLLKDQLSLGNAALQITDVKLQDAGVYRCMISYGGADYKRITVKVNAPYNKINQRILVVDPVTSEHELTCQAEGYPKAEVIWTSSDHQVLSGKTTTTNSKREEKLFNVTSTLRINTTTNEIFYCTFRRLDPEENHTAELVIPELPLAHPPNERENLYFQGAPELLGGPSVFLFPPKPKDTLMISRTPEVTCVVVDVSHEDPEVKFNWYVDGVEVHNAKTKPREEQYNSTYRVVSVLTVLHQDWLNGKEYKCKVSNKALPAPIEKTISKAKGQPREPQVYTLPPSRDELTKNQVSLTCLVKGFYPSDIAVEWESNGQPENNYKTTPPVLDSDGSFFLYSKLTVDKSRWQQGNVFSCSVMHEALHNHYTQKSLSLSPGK
T2 sequence (Q9NZQ7 19-290): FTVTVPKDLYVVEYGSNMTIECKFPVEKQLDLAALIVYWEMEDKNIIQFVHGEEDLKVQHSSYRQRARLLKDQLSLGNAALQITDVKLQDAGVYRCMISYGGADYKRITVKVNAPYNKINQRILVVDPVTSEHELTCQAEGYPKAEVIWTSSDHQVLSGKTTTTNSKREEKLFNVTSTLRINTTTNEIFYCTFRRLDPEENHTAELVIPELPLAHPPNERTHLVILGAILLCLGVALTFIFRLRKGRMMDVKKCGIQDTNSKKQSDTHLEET
T4 sequence (chain, as listed by the source E58A E58A limits assumed): as the sequence (chain, as listed by the source limits assumed) above, with E40A counted along it
Sequence of hPD-L1 (antigen of the Biacore assay) (Q9NZQ7 19-238 limits assumed): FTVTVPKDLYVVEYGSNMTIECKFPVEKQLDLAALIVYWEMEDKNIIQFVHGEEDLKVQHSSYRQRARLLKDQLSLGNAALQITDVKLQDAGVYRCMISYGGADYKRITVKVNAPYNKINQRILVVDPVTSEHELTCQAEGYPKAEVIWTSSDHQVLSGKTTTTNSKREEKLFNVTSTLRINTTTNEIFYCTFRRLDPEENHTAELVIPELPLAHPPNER
T1 sequence (Q9NZQ7 other isoform, or with tags, fused parts or gaps limits assumed): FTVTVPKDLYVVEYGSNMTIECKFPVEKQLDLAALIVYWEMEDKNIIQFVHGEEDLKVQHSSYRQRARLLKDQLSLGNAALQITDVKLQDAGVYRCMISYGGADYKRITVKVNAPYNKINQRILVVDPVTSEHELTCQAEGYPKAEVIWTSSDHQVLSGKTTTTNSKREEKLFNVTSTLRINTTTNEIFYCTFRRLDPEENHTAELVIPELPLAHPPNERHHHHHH
T5 sequence (Q9NZQ7 19-238 limits assumed): as the sequence (Q9NZQ7 19-238 limits assumed) above

EC50 (read off the curve) [1]: ~0.02 µg/mL | IC50 (read off the curve) [2]: ~0.09 µg/mL | EC50 (read off the curve) [3]: ~0.1 µg/mL | EC50 (read off the curve) [4]: ~0.01 µg/mL
B1: 26F5-C (antibody, V domains shown)
VH: QVQLQQPGAELVKPGASVKLSCKASGYTFPSYWMHWMKQRPGQGLEWIGMIQPSTSGTIYNERFKNQVTLTVDKSSSTAYMQLSSQTSEDSAVYYCARGTGTVDYFDYWGQGTTLTVSS
VL: DIVLTQSPASLAVSLGQRATISCRASESVDSYGNSFIHWYQQKPGQPPKLLIHRASNLESGIPATFSGSGSRTDFTLTINPVEADDVATYYCQQSKEDPYTFGGGTKLEIK
notes: Mouse variable regions fused to a human IgG1 constant region; also called 26F5-chimeric; chimeric antibody 26F5

EC50 (read off the curve) [5]: ~0.01 µg/mL | EC50 (read off the curve) [6]: ~0.01 µg/mL
B2: 21F11-C (antibody, V domains shown)
VH: QVQLQQPGAELVKPGASVKLSCKASGYTFTSNWMHWVKQRPGQGLEWIGMMHPNSGSINYNEKFKNKATLTADKSSSTAYMQLSSLTSEDSAVYYCARSYYGSSPYYFDYWGQGTTLTVSS
VL: DIQMTQTTSSLSASLGDRVTISCRASQDISNYLNWYQQKPDGTVKLLIYYTSRLHSGVPSRFSGSGSGTDFSLTISNLEEEDIATYFCQQGDTLPWTFGGGTKLEIK
notes: Mouse variable regions fused to a human IgG1 constant region; also called 21F11-chimeric; chimeric antibody 21F11

Kd [7]: 43.2 nM | koff [7]: 0.0223 s⁻¹ | kon [7]: 517000 M⁻¹ s⁻¹ | EC50 (read off the curve) [8]: ~0.02 µg/mL | binding signal at pH5 as percent of the signal at pH7.4 [9]: < 50% | binding signal at pH5.5 as percent of the signal at pH7.4 [9]: < 75% | EC50 (read off the curve) [10]: ~0.02 µg/mL | IC50 (read off the curve) [11]: ~0.05 µg/mL | EC50 (read off the curve) [12]: ~0.002 µg/mL | Mean OD450 [13]: 1.34 OD450 | OD450 nM of sample-1 [13]: 1.22 OD450 | OD450 nM of sample-2 [13]: 1.47 OD450 | % of binding of Ab to E58A mutant vs. that to WT PD-L1 [14]: 8.3% | Mean OD450 [14]: 0.111 OD450 | OD450 nM of sample-1 [14]: 0.128 OD450 | OD450 nM of sample-2 [14]: 0.094 OD450 | EC50 (read off the curve) [15]: ~0.01 µg/mL | IC50 (read off the curve) [16]: ~0.05 µg/mL
B3: 23A11-H3L5 (antibody, V domains shown)
VH: LVQLVQSGAEVKKPGASVKLSCKASGYIFTTYWIHWVKQRPGQGLEWIGMIQPNSGGTKYNDQFKNRATLTVDKSISTAYMELSRLTSDDTAVYYCARGAGTVDYFDYWGQGTTLSISS
VL: DIVLTQSPASLAVSVGQRATITCRASESVDIYGNSFMHWYQQKPGQAPKLLIYRASNLESGIPARFSGSGSRTDFTLTINPVEANDTATYYCQQSNDDPYTFGGGTKLETK
notes: Human IgG1 constant region with N297A; biotinylated in the alanine-scan ELISA; also called 23A11-H3L5-bio; humanized 23A11

IC50 (read off the curve) [11]: ~0.05 µg/mL | EC50 (read off the curve) [17]: ~0.006 µg/mL | EC50 (read off the curve) [18]: ~0.008 µg/mL
B4: 23A11-H3L5 CHO (antibody, V domains shown)
VH: B3 VH with L1Q
VL: B3 VL with N85Q
notes: CHO-produced counterpart of m16; also called 23A11-H3L5 produced in CHO cells
